Legend:
[1] = target: T1, KCa3.1 (Homo sapiens, UniProt O15554); assay: A23187-stimulated KCa3.1 activity measured as 86Rb influx; type: cell-based; conditions: 1 μM; intact human AA cells, 1 μM A23187, extracellular Ca2+; n=3
T1 construct: KCa3.1 activity stimulated in intact human AA cells by 1 μM A23187; endogenous in cells; host or cells: intact human AA red blood cells

[2] = system: mdx mice; assay: Toxicity with daily subQ dosing for 30 days; type: in vivo, mouse
Description: This example describes toxicity studies with GsMTx-4. In one experiment, D-GsMTx4 was administered to 60 mdx mice and controls by daily subQ dosing at 5 mg/kg for 30 days at the Washington D.C. Wellstone center.

[3] = system: SAD sickle mouse red cells; assay: Fluo-3 fluorescence measurement of [Ca2+]i during deoxygenation, SAD cells; type: cell-based; conditions: 1 μM; SAD red cells
Description: Blood was withdrawn by cardiac puncture or from the tail vein of C57B16/J wildtype mice, SAD sickle mice, or Berkeley sickle mice into heparinized syringes by IACUC-approved protocols of Beth Israel Deaconess Medical Center. Buffy coat-depleted cells were washed 5 times in standard mouse red cell wash solution containing (in mM) 172 choline Cl, 10 sucrose, 10 Na Tris-MOPS, pH 7.4, resuspended in storage solution, and kept at 4° C. until use.
(§1) Fluorescence measurements of cytosolic [Ca^2+] ([Ca^2+]i): After removal of plasma and buffy coat by aspiration, human or mouse red cells were washed three times at room temperature and suspended in modified Hank's solution containing (in mM), 137 NaCl, 5.4 KCl, 1 CaCl2, 1 MgCl2, 0.8 NaK phosphate, 5.6 glucose, and 10 Na HEPES, pH 7.4. Dilute cell suspensions were settled on polylysine-coated coverslips forming the bottom of an open perfusion chamber (2.5 cm diameter, 1 cm depth) and washed again 3 times.
Measurement of relative changes in [Ca^2+]i by Fluo-3 fluorescence emission was previously validated in intact human (Yang et al. 2000, Blood, 95(7):2421-2425; Andrews et al. 2002, Blood, 199(9):3392-3399) and mouse red cells (Akel et al. 2007, Amer. J. Physiol., 292(5):C1759-1767). Attached red cells were loaded in the dark with the fluorescent non-ratiometric Ca^2+ indicator Fluo-3-AM (10 μM, Molecular Probes, Eugene, Oreg.) at 37° C. for 1 hr, then washed and incubated 15 min further to allow de-esterification of intracellular dye. The open perfusion chamber containing dye-loaded cells was mounted on an Olympus IMT-2 inverted epifluorescence microscope equipped with CoolSNAP CCD camera (Photometrics, Tucson, Ariz.). Fluo-3 in cells imaged through a 60× objective was excited by mercury-xenon illumination passed through a 495ds20 filter. Fluorescence emission (proportional to [Ca^2+]i) from a 535ds20 bandpass filter was collected from all attached single cells within the arbitrarily selected visual field. Emission image acquisition was controlled by a Metafluor digital imaging system (Universal Imaging, West Chester, Pa.).
(§2) Fluo-3 fluorescence from attached cells on each coverslip was recorded 60 sec in room air and then for 10 min after onset of perfusion chamber flushing with humidified 100% N2. The normalized increase in Fluo-3 fluorescence in SS cells subjected to this deoxygenation procedure was indistinguishable from that observed during superfusion of cells in a closed perfusion chamber via syringe pump with bath previously bubbled for 60 min with 100% N2 (n=62 cells from 2 SS patients, not shown). The y-axis value of 0% change in Fluo-3 fluorescence intensity represented mean intensity recorded from all cells within the coverslip visual field during the 60 sec prior to deoxygenation.

[4] = system: human SS red cells; assay: Fluo-3 fluorescence measurement of [Ca2+]i during deoxygenation, human SS cells; type: cell-based; conditions: 1 μM, 10 min pretreatment and continued presence in bath
Description: Blood cell preparation: Human SS and AA blood was obtained under IRB-approved protocols of Children's Hospital and Beth Israel Deaconess Medical Center. After buffy coat removal and 5 washes in standard human red cell wash solution containing (in mM) 150 choline Cl, 1 MgCl, and 10 Tris-MOPS, pH 7.4, red cells were resuspended in storage solution containing (in mM) 145 KCl, 15 NaCl, and 10 HEPES, pH 7.4, then kept at 4° C. until used. Human red cells allowed to settle on coverslips were mounted on an inverted microscope in a 200 μl open chamber (WPI, Sarasota, Fla.) and superfused 15 min at room temperature by bath solution containing (in mM) 150 Na methanesulfonate, 10 Na EDTA, and 10 Na HEPES, pH 7.4.
Washed human or mouse red cells in solution containing (in mM) 140 NaCl, 5 KCl, 1 CaCl2, 1 MgCl2, 10 Na HEPES, pH 7.4 were exposed for 1 hr on a rotary platform in a 37° C. incubator to 25 ppm carbon monoxide (CO) in 5% CO2. CO-exposed cells were then subjected to patch clamp or to calcium imaging experiments within 60 min after return to room air, using the solutions indicated.
as §1
Measurement of relative changes in [Ca^2+]i by Fluo-3 fluorescence emission was previously validated in intact human (Yang et al. 2000, Blood, 95(7):2421-2425; Andrews et al. 2002, Blood, 199(9):3392-3399) and mouse red cells (Akel et al. 2007, Amer. J. Physiol., 292(5):C1759-1767). […] Fluorescence emission (proportional to [Ca^2+]i) from a 535ds20 bandpass filter was collected from all attached single cells within the arbitrarily selected visual field. […]
as §2

[5] = target: T1, KCa3.1; type: cell-based; conditions: 1 μM; intact human AA cells, 1 μM A23187, extracellular Ca2+; n=3

T1 sequence (O15554 whole entry): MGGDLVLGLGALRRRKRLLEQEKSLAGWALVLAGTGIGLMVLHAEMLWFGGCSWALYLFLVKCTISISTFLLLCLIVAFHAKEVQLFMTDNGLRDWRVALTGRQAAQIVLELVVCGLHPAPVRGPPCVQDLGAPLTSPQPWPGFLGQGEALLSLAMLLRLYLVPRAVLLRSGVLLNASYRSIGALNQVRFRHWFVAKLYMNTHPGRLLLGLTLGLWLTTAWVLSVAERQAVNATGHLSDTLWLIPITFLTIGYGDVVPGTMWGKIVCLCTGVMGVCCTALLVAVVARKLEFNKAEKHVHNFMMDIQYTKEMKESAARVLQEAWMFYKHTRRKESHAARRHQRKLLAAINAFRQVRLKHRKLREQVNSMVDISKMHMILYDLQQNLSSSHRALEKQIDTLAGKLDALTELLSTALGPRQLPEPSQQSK

Substance: Grammastola spatulata mechanotoxin 4 (GCLEFWWKCNPNDDKCCRPKLKCSKLFKLCNFSF; listed as Grammastola spatulata) [GsMTx-4]
- effect on KCa3.1 activity, 86Rb influx [1]: no effect
- toxicity in mice, general statement [2]: very low to absent toxicity
- toxicity ([2]; 5 mg/kg subQ daily, 30 days (month long)): no toxicity observed
- effect on increased [Ca2+]i accompanying deoxygenation [3]: completely inhibited
- effect on [Ca2+]i elevation by deoxygenation [4]: prevented
- effect on [Ca2+]i elevation by deoxygenation ([4]; listed as GsMTx4): nearly completely block
- effect on [Ca2+]i elevation by deoxygenation ([4]; listed as GsTMx-4): blocked
- effect on KCa3.1 activity, cell shrinkage [5]: no effect
